Laboratory results from the nanobody polyreactivity screen of Harvey et al. (2022).

test: yeast display, Sf9 membrane polyspecificity reagent, FACS + sequencing; frameworks hold sequencing errors
In short: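 A nanobody's polyreactivity label depends on the gate it was sorted from. Yeast display cells were stained with 10% biotinylated, detergent-solubilized Sf9 membrane reagent for 1 hour at 4 °C, enriched on streptavidin microbeads and sorted by FACS. The low and high (top ~1%) gates were set on anti-HA fluorescence for expression and streptavidin fluorescence for reagent binding.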

Sequence | polyreactivity (PSR sort gate)
QVQLVESRGALVQAGRSLRLRCAASGLIFYLYAMGWYRQAPGKARELVAAINYSGGRTYYADSVKGRFTISRDNAKNTVYLQMNSLKPEDTAVYYCAAKSAGFQYNYWGHGTQVTVSS | high polyreactivity
QVQLVESRGGLDQAGGSLRLSCAASGSTFYMYAMGWYRQAPGKERELVASITSGDGSTYYADSVKGRFTISRDNAKNTVYLQMNSLKPEDTAVYYCNAVLEGWFYQYDYWGQGTQVTVSS | low polyreactivity
QVQLVESRGGLFQAGGSLRLSCAASGFIFRDNAMGWYRQAPGKERELVAAISKSGGRTYYADSVKGRFTISRDNAKNTVYLQMNSLKPEDTAVYYCAKVRYQGNGGYYWGQGTQVTVSS | high polyreactivity
QVQLVESRGGLVQAGGSHRLSCAASGSIIYGNTMGWYRQAPGKERELVAAIRRGGSTNYADSVKGRFTISRDNAKNTVYLQMNSMKPEDTAVYYCAKGHPSDFGYWGQGTQVNVSS | high polyreactivity
QVQLVESRGGLVQAGGSIRLSCAASGRIFVTYAMGWYRQAPGKERELVAVISWSGGSTYYADSVKGRFTISRDNAKNTVYLQMNSLKPEDTAVYYCARGLRKVRFDFWGQGTQVTVSS | low polyreactivity
QVQLVESRGGLVQAGGSLLLRCAASGSTITRNAMGWYRQAPGKERELVAAITSGGGTNYADSVKGRFTISRDNAKNTVYLQMNSLKPEDTAVYYCADRYWRFYTKRGYWGQGTQVTVSS | high polyreactivity
QVQLVESRGGLVQAGGSLRLICAASGRIFGRNAMGWYRQAPGKERELVAAISKRGGSTSYADSVKGRFTISRDNAKNTVYLQMNSLKPEDTAVYYCATSAPLVTSSGYGYWGQGTQVTVSS | high polyreactivity
QVQLVESRGGLVQAGGSLRLRCAASGSTFGYYAMGWYRQAPGKERELVAGISSGGTTKYADSVKGRFTISRDNEKNTVYLQMNSLKPEDTAVYYCAATVRVYDYWGQGTQVTLSS | high polyreactivity
QVQLVESRGGLVQAGGSLRLSCAASGFIFRYYAMGWYRQEPGKDSELVAAISWSGGSTYYADSVKGRFTISRDNAKNTVYLQMNSLKPEDTAVYYCAADRYAILFYAEDYWGQGTQVTVSS | low polyreactivity
QVQLVESRGGLVQAGGSLRLSCAASGFNFPHYAMGWYRQAPGKERELVAAISKSGDSTYYADSVKARFTISRDNAKNTVYLQMNSLKPEDTAVYYCARRGRSVRWKYDYWGQGTQVTVSS | low polyreactivity
QVQLVESRGGLVQAGGSLRLSCAASGFTFGWYAMGWYRQSPGKERELVAAITSGGSTKYADSVKGRFTISRDNAKNTVYLEMNSLKPEETAVYYCAAKRLGQYRPYTYGYWGQGTQVTVSS | high polyreactivity
QVQLVESRGGLVQAGGSLRLSCAASGFTFQRYAMGWYRQAPGKERELVAAINRSGGNTHYADSVKGRFTISRDNAKNTVYLQMNSLKPDDTAVYYCAVGTPASVGHYTYDYWGQGTQVTVSS | high polyreactivity
QVQLVESRGGLVQAGGSLRLSCAASGFTFVYYTMGWYRQAPGKERELVAAINWSGGSTYYADSVKGRFTISRDNAKNTVYLQMNSLKPEDTAVYYCAADTSYYPYEYWGQGTQVTVSS | high polyreactivity
QVQLVESRGGLVQAGGSLRLSCAASGGIFINYAMGWYRQAPGKERELVAAISRRGGSTYYADSVKGRFTISRDNAKNTVYLQMNSLKPEDTAVYYCNAVYLRGGMDYWGQGTQVTVSS | high polyreactivity
QVQLVESRGGLVQAGGSLRLSCAASGIIFSKNAMGWYRQAPGKERELVATINRSGGSTYADSVKGRFTISRDNAKNTVYLQMNSLKPEDTAVYYCAKRASPFWRGYDSCGQGTQVTVSS | high polyreactivity
QVQLVESRGGLVQAGGSLRLSCAASGIIFYQYAMGWYRQAPGKERELVAAITRSGGSTYFADSVKGRFTISRDNAKNTVYLQMKSLKPEDTAVYYCAARPFHSGYEGYGYWGQGTQVTVSS | high polyreactivity
QVQLVESRGGLVQAGGSLRLSCAASGLTFKWYAMGWYRQAHGKERELVAAISRDGSTYYADSVKGRFTISRDNAKNTVYLQMNSLKPEDTAVYYCAAEPRSRRVLYDYWGQGTQVTVSS | high polyreactivity
QVQLVESRGGLVQAGGSLRLSCAASGNTFRIYTMGWYRQAPGKDRELVATITRRGGYTYYADSVKGRFTISRDNAKNTVYLQMNSLKPEDTAVYYCNALPRPSYTFDYWGQGTQVTVSS | high polyreactivity
QVQLVESRGGLVQAGGSLRLSCAASGRINSRYAMGLSRQEPGKERELVAAISWNGGSTYYADSVKGRFTISRDNAMNTVYFQMNSLKPEDTAVYYCAAYRPGPYAAYGYWGQGTQVTVSS | high polyreactivity
QVQLVESRGGLVQAGGSLRLSCAASGRNFKANTMGWYRQAPGKERVVVAAITASGGTTYYADSVKGRFTISRDNAKNTVYLQMTSLKPEDTAVYYCAAAVWYRGWYRYEYWGQGSQVTVSS | low polyreactivity
QVQLVESRGGLVQAGGSLRLSCAASGRTFWYYAMGWYRQAPGKEMELVATITGSGGTTYYADSVKGRFTISRDNAKNTVYLQMNSLKREDTAVYYCAKEQHWYIYGPAEVDYWGQGTQVTVSS | high polyreactivity
QVQLVESRGGLVQAGGSLRLSCAASGRTIGLNAMGWYRQAPRKERELVASAITGGGDSTYYADSVKGRFTMSRDNAKNPVYLQMNSVKPEDTAVYYCAKRYSRGSQYDYWGQGTQVTVSS | high polyreactivity

Sequence | polyreactivity (PSR sort gate)
QVQLVESRGGLVQAGGSLRLSCAASGSIFGANAMGWYRQEPGKEMELVAAISTRGGRTYYADSVKGRFTISRDNAKNTVYLQMISLKPEDTAVYYCATSGGRPYTYEYWGQGTQVTVSS | high polyreactivity
QVQLVESRGGLVQAGGSLRLSCAASGSIFGFYAMGWYRQAPGKERELVAAISSDGGSTYYADSVKGRFTISRDNAKNTVYLQMNSLKPEDTAVYYCAAAHGSIYDSTYYEYYYWGQGTQVTVSS | low polyreactivity
QVQLVESRGGLVQAGGSLRLSCAASGSIFGYYTMGWYRQAPGKDRELVAAISARGGRTYYADSVKGRFTISRDNAKNTVYLLMNSLKPEDTAVYYCAKRVYRRLYTGGQNPYDYWGQGTQVTVSS | high polyreactivity
QVQLVESRGGLVQAGGSLRLSCAASGSIFLYYARGWYIQAPGKERELDAAISISGGRTYYADSVKGRFTISRDNSKNTVYIQMNSLKPEDTAVYYCATKGYTGYAYRYGYWGQGTQVTVSS | high polyreactivity
QVQLVESRGGLVQAGGSLRLSCAASGSIFPVYAMGWYRQATGKERELVASISSSGGRTYYADSVKGRFTISRDNAKNTVYLQMNSLKPEDTAVYYCAAGAFHGVFWYEYWGQGTQVTVSS | high polyreactivity
QVQLVESRGGLVQAGGSLRLSCAASGSTFLNYAMGWYRQAPGKERELVAAISGSTTRTYYAESVKGRFTISRDNAKNTVYLQMNSLKPEDTAVYYCAATRGRGGRDDYWGQGSQVTVSS | high polyreactivity
QVQLVESRGGLVQAGGSLRLSCAASGSTFRIKAMGWYRQAPGNERELFAAIRASGTSTYYADSVKGRFTISRDNGQNTVYLLMIRLKPEDTAVDYCAASAQQPVLGLSYYYWGQGTQVTVSS | high polyreactivity
QVQLVESRGGLVQAGGSLRLSCAASGSTLYLYALGWYRQAPGKERELVAAISQSGTRTYYADSVKGRFTISRDNAKNTVYLQMNSQKPEDTAVSYCAAGRYQPYSYDYWGQGTQVTVSS | high polyreactivity
QVQLVESRGGLVQAGGSLRLSCAASGYTFDANAMGWYRQAPGKERELVASISSISDSTDYADSVKGRFTISRDNAKNTVYLQMNSLKPVDTAVYYCARSDVKPGRQERDYWGQGTQVTVSS | low polyreactivity
QVQLVESRGGLVQAGGSLRLSCACSGGIFVKSAMGCYRKAPCKERELVAAISKRGGRTYYADSVKGRFTISRDNAKNTVYLQMNSLKPEDTAVYYCYADVGVEYDYWGQGTQVTVSS | high polyreactivity
QVQLVESRGGLVQAGGSLRLSCPASGLIYVAYAMGWYRQAPGKERELVAAISRNGGSTYYADSVKGRFTISRDNAKNTVYLQMNSLKPEDTAVYYCAARYAYYTARYTQVKGLDYWGQGTQVTVSS | high polyreactivity
QVQLVESRGGLVQAGGSLRLTCAASGFIFKGYAMGWYRQEPGTERELVAAISYSGGNTYYADSVKGRFTISRDNAKNTVYLQMNSLKPEDTAVYYCAVRKRKVLGMYYWGQGTQVTVSS | high polyreactivity
QVQLVESRGVLVQAGGSLRLSCAASGRTFYYYAMGWYRQAPRKERELVAAINTRRTSTYYADSVKGRFTISRDNAKKTVYLQMNSLKPEDTAVYYCAVDPYGDSWEDWFRNYYYGYDYWGQGTQVTVSS | low polyreactivity
QVQLVESSGGLVQAGGSLRLSCAASGFIFPLYTMGWYRQAPAKERELVAAISVTGGSTYYADSVKGRFTISRDNAKNTVYLQMNSLKPEDTAVYYCNAYLFFLNRVCSFDYWGQGTQVTVSS | high polyreactivity
QVQLVESSGGLVQAGGSLRLSCAASGFSFKRYAMGWYRQAPGTERELVAAINSGGSTNYADSVKGRFTMSRDNAKNTVYLQMNSLKPEDTAVYSCAASTPQYQYYYWGQGTQVTVSS | high polyreactivity
QVQLVESSGGLVQAGGSLRLSCAASGLTFDGYAMGWYRQAPGKEREIVAAITQSGGSTYYADSVKGRFTISRDNAKNTVYLQMNSLKPVDTAVYYCAADGVLIHISYFRVVDGGEDHWGQGTQVNVSS | low polyreactivity
QVQLVESSGGLVQAGGSLRLSCAASGRTFTSNAMGWYRQAPGKERELVAAISNGGSTYYADSVKGRFTISRDNAKNTVYLQMNSLKPEDTAVYYCAAQYRVLWYSYYYWGQGTQVTVSS | high polyreactivity
QVQLVESSGGLVQAGGSLRLSCSASGRTFVWYDMGWYRQAPGKERELVAAITKRGTSTYYADSVKGRFTISRDNAKNTVYLQMNSLKPEDTAVYYCAVEYIYWFHCRSSFIYDYWGQGTQVTVSS | low polyreactivity
QVQLVESSGGLVQAGGSLRLTCAASGSTFTIYAIGWYRQAPRKERELVAVISSSGGSTYYADSVMGRFTISRDNAKNTVYLQMNSLKPEDTAVYYCAADTRYVGGYLTLYYWGQGTQVTVSS | low polyreactivity
QVQLVESVGCLVQAGGSLRLSCAASGSTFDYYAMGWYRQAPGKERELVAAITSTGRTYYADSVKGRFTISRDNAKNTVYLQMNSLKPEDTAVYYCAADLPWGPLFDYWGQGTQVTVSS | low polyreactivity
QVQLVESVGCLVQAGGSLRLSCASTGRTFTPYAMGWYRHRPGKESEFVPAIDTSGGSTYADSVKGRFTISRDNANNTVYLQMNSLKPEDTAVYYCATRGFYSWSYWYLWEYDYWGQGTQVTVSS | low polyreactivity
